Source: doi:10.1101/2020.04.14.041046
pKd: −log10 of the molar value.

Target: actin filaments (rabbit skeletal muscle actin) (rabbit) (UniProt P68135)
Test: co-sedimentation

**Q.** “calponin-homology actin binding domain of fission yeast IQGAP Rng2 (Rng2CHD) (domain or fragment)” was tested. Which pKd did it give?
**A.** 6.04

**Q.** Which stoichiometry N does the source give for “Rng2CHD fused with GFP to its N-terminus via a 16-residue linker (GFP-Rng2CHD) (domain or fragment)” here?
**A.** 1
